Usually Kd stands for a measure of binding affinity in units of concentration. As a reminder, the stoichiometry N is the number of molecules, sites or subunits per partner or assembly.

The record followed here is publication PMC3344845, “Structure of Bradavidin – C-Terminal Residues Act as Intrinsic Ligands” (PLoS ONE, 2012).

In experiment [1] the target is core-bradavidin (Bradyrhizobium japonicum). Description: ITC; core-bradavidin in the cell, ligand (Brad-tag or Brad-tag–EGFP) in the syringe, 15°C, 50 mM sodium phosphate pH 7.0, 100 mM NaCl; n is the stoichiometry per subunit.
Experiment [2] shares this target. The experiment is described as above. The source holds these as a separate data set.
For experiment [3] the target is unchanged. Description: ITC; core-bradavidin, avidin, streptavidin or rhizavidin in the cell, Brad-tag in the syringe, 40°C, 50 mM sodium phosphate pH 7.0, 100 mM NaCl; n is the stoichiometry per subunit. On the technique in general: In ITC the heat of successive injections is recorded.

As to SEKLSNTK [Brad-tag (synthetic peptide SEKLSNTK)], in experiment [1], the Kd came to 25 µM, the dH stood at 1.7 kcal mol^–1 and the stoichiometry N stood at 0.94. The same molecule yielded a dH in experiment [2] of 1.1 kcal/mol. In experiment [3], this molecule displayed a Kd of 26 µM, a dH of -4.4 kcal mol^–1 and a stoichiometry N of 0.62.
